# According to article PMC10031466 (The Journal of Biological Chemistry, 2023):
# B1: N-acetylglucosamine kinase (NagK) from Plesiomonas shigelloides (enzyme)
# chain: MYYGFDIGGTKIEFGAFDADLVRVARERVATPTESYAAFLDAIVTLVNNADAEFGVKGTVGIGIPGIADVETGKLLTSNIPAAMGHTLQRDLEERLQRPVKIENDANCFALSEAWDEDLRGEPSVLGLILGTGVGGGLIFNGKVHSGRANIAGEIGHTRLPYDALKLLGMENAPIFPCGCKNSGCIDNYLSGRGFEQLYDHYFSEKLSAPEIIAHYEQGERRAVQHVERFMELLAICLANIFTCLDPHVVVLGGGLSNFELIYQELPKRLPAHLLHVAKLPKIIKARHGDAGGVRGAAFLNL
# notes: N-acetylglucosamine kinase NagK of Plesiomonas shigelloides, codon-optimized nagK gene in pOPINS3C; also called PsNagK; P. shigelloides NagK; source: E. coli BL21 (DE3), purified (HisTrap, Superdex 200 size exclusion); not shown: polyhistidine, N-terminal, kept; SUMO, N-terminal, kept
# Target: the molecule itself
# Assay: crystal structure; microbatch crystallization of His-SUMO tagged P. shigelloides NagK (5 mg/ml), Morpheus I screen with matrix microseeding; apo structure PDB 7P7I, 2 protein monomers in the a.u.
protein,measurement,value
B1,stoichiometry N,2
